According to publication PMC6301718, “CDHR3 extracellular domains EC1-3 mediate rhinovirus C interaction with cells and as recombinant derivatives, are inhibitory to virus infection” (PLoS Pathogens, 2018):

How the values were obtained:
[1] = target: rEC1-3 (CDHR3 residues 20–345, C345A) (human) (UniProt Q6ZTQ4); experiment: co-IP; refolded bacterial CDHR3 fragment (100 pmol) incubated with C15 virus (10^7 PFUe, 1 h, 25°C) and α-His mAb in 20 mM Tris, 137 mM NaCl, 2 mM CaCl2, 1% Triton x-100, protein-G sepharose; Western with α-His and α-C15; complexes also treated with 500 mM NaCl (Fig 5d)
[2] = target: rEC1-3 K43A (20–345, C345A, K43A) (human) (UniProt Q6ZTQ4); experiment: as above
[3] = target: rEC1-3 N186A (20–345, C345A, N186A) (human) (UniProt Q6ZTQ4); experiment: as above
[4] = target: rEC1 (CDHR3 residues 20–130) (human) (UniProt Q6ZTQ4); experiment: as above
[5] = target: rEC1-2 (CDHR3 residues 20–237) (human) (UniProt Q6ZTQ4); experiment: as above
[6] = target: rEC1+3(Δ2) (CDHR3 residues 20–345, Δ129–231) (human) (UniProt Q6ZTQ4); experiment: as above
[7] = target: pHL-FLAG-CDHR3-His EC1-3 (1–345) (human) (UniProt Q6ZTQ4); experiment: co-IP; HeLa-expressed CDHR3 fragments recovered from lysate with α-His mAb, denatured and refolded as the bacterial proteins, reacted with C15 virus; IP and detection with α-His mAb
[8] = target: FLAG-tag-CDHR3 Y529 N186Q (human) (UniProt Q6ZTQ4); experiment: co-IP; clarified lysate of transfected or stably transduced HeLa cells (2 mM CaCl2) incubated with sucrose purified C15 virus (10^7 PFUe) and α-CDHR3 antibody (cytoplasmic domain) overnight at 4°C, protein-G sepharose; Western with α-CDHR3 and α-C15
[9] = target: FLAG-tag-CDHR3 Y529 R166A (human) (UniProt Q6ZTQ4); experiment: as above
[10] = target: FLAG-tag-CDHR3 Y529 K43A (human) (UniProt Q6ZTQ4); experiment: as above
[11] = target: FLAG-tag-CDHR3 Y529 W76A (human) (UniProt Q6ZTQ4); experiment: as above
[12] = target: FLAG-tag-CDHR3 Y529 N186A (human) (UniProt Q6ZTQ4); experiment: as above
[13] = target: the molecule itself; experiment: SEC; HiPrep 16/60 Sephacryl S200, refolded protein 0.5–1.5 mg, 1 mL/min, 20 mM Tris (pH 8.0), 137 mM NaCl, 2 mM CaCl2

rhinovirus C15 virion (complex)
binding % relative to the positive control (100) of the panel [1]: 61%
binding % relative to WT rEC1-3 [2]: 22%
binding % relative to WT rEC1-3 [3]: 85 % of WT
binding % relative to the positive control (100) of the panel [4]: 100%
binding % relative to the positive control (100) of the panel [5]: 87%
binding % relative to the positive control (100) of the panel [6]: 68%
binding % after refolding relative to the same protein not refolded [7]: 213%
binding % relative to WT CDHR3 (C15 signal normalized to CDHR3 signal) [8]: 19%
binding % relative to WT CDHR3 (C15 signal normalized to CDHR3 signal) [9]: 16%
binding % relative to WT CDHR3 (C15 signal normalized to CDHR3 signal) [10]: 46%
% more virus pull-down than WT (% more than WT) [11]: 50 to 80
binding % relative to WT CDHR3 (C15 signal normalized to CDHR3 signal) [12]: 11%

B1: rEC1-3 (CDHR3 residues 20–345, C345A) (domain or fragment)
chain: LHLILLPATGNVAENSPPGTSVHKFSVKLSASLSPVIPGFPQIVNSNPLTEAFRVNWLSGTYFEVVTTGMEQLDFETGPNIFDLQIYVKDEVGVTDLQVLTVQVTDVNEPPQFQGNLAEGLHLYIVERANPGFIYQVEAFDPEDTSRNIPLSYFLISPPKSFRMSANGTLFSTTELDFEAGHRSFHLIVEVRDSGGLKASTELQVNIVNLNDEVPRFTSPTRVYTVLEELSPGTIVANITAEDPDDEGFPSHLLYSITTVSKYFMINQLTGTIQVAQRIDRDAGELRQNPTISLEVLVKDRPYGGQENRIQITFIVEDVNDNPATA
notes: numbering from GenBank AIC58018; also called soluble CDHR3 rEC1-3; not shown: His6, C-terminal, kept
binding result [13]: binds

B2: rEC1-2 (CDHR3 residues 20–237) (domain or fragment)
chain: LHLILLPATGNVAENSPPGTSVHKFSVKLSASLSPVIPGFPQIVNSNPLTEAFRVNWLSGTYFEVVTTGMEQLDFETGPNIFDLQIYVKDEVGVTDLQVLTVQVTDVNEPPQFQGNLAEGLHLYIVERANPGFIYQVEAFDPEDTSRNIPLSYFLISPPKSFRMSANGTLFSTTELDFEAGHRSFHLIVEVRDSGGLKASTELQVNIVNLNDEVPRFT
notes: CDHR3, human, residues 20-237 (EC1 and EC2); numbering from GenBank AIC58018; also called rE1-2; rEC1-2 WT; not shown: His6, C-terminal, kept
binding result [13]: binds

B3: rEC1-2 W76A (CDHR3 residues 20–237, W76A) (domain or fragment, human, UniProt Q6ZTQ4 20-237, looked up)
chain: LHLILLPATGNVAENSPPGTSVHKFSVKLSASLSPVIPGFPQIVNSNPLTEAFRVNALSGTYFEVVTTGMEQLDFETGPNIFDLQIYVKDEVGVTDLQVLTVQVTDVNEPPQFQGNLAEGLHLYIVERANPGFIYQVEAFDPEDTSRNIPLSYFLISPPKSFRMSANGTLFSTTELDFEAGHRSFHLIVEVRDSGGLKASTELQVNIVNLNDEVPRFT
notes: CDHR3, human, residues 20-237; numbering from GenBank AIC58018; not shown: His6, C-terminal, kept
binding result [13]: binds
